Measured values reported in patent publication US20240247079A1 (NANJING ANJI BIOLOGICAL TECHNOLOGY, published 2024).

Assays:
[1] = target: T1, HMMW micropeptide (recombinant, purified from Escherichia coli BL21) (human); experiment: indirect ELISA, HMMW micropeptide coated at 1 ug/ml
T1 construct: also called purified HMMW micropeptide; human HMMW micropeptide
T1 peptide: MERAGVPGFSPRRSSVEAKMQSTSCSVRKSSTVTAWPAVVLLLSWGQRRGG
Method: (§1) The antigen coating concentration of the HMMW micropeptide was 1 μg/ml and 5% milk PBS-T was used for sealing. The dilution multiples of eight antibodies were: 1: 3.125 K/6.25 K/12.5 K/25 K/5O K/100 K. The primary antibodies were incubated at 37° C. for 1 h and the secondary antibodies were incubated at 37° C. for 45 min. A color developing solution was added, reaction was performed at 37° C. for 15 min, the reaction was terminated, and the value was read. It can be seen from Table 2 below that the titers of the eight antibodies all reached 1: 100 K, meeting the requirements for subsequent antigen detection.

[2] = target: T1, HMMW micropeptide (recombinant, …); experiment: indirect ELISA, HMMW micropeptide coated at 1 ug/ml, antibody dilution 1:25K
Method: as §1

[3] = target: T1, HMMW micropeptide (recombinant, …); experiment: indirect ELISA, HMMW micropeptide coated at 1 ug/ml, antibody dilution 1:50K
Method: as §1

[4] = target: T1, HMMW micropeptide (recombinant, …); experiment: indirect ELISA, HMMW micropeptide coated at 1 ug/ml, antibody dilution 1:100K
Method: as §1

[5] = target: T1, HMMW micropeptide (recombinant, …); experiment: indirect ELISA, HMMW micropeptide coated at 1 ug/ml, antibody dilution 1:12.5K
Method: as §1

[6] = target: T1, HMMW micropeptide (recombinant, …); experiment: indirect ELISA, HMMW micropeptide coated at 1 ug/ml, antibody dilution 1:6.25K
Method: as §1

[7] = target: T1, HMMW micropeptide (recombinant, …); experiment: indirect ELISA, HMMW micropeptide coated at 1 ug/ml, antibody dilution 1:3.125K
Method: as §1

B1: Anti-HMMW antibody-1 (antibody, V domains shown)
VH: EVKLEESGGGLVQPGGSMKFSCVASGFTFSNYWMNWVRQSPERGLEWVAEIKLKSNNYATLYAESVKGRFTISRDDSKSSVYLQVNNLRAEDTGIYYCITEIFDYWGQGTTLTVSS
VL: QAVVTQESALTTSPGETVTLTCRSSTGAVTTSNYATWVQEKPDHLFTGLIVGANNRAPGVPARFSGSLIGDKAALTITGAQTEDEAIYFCALWFLNHWVFGGGTKLTVLG
notes: Mouse monoclonal antibody from a BALB/c x SP2/0 hybridoma; also called anti-HMMW-1 antibody
- titer [1]: ≥ 100000 dilution (1:x)
- ELISA reading at antibody dilution 1:25K [2]: 2.13
- ELISA reading at antibody dilution 1:50K [3]: 1.85
- ELISA reading at antibody dilution 1:100K [4]: 1.14
- ELISA reading at antibody dilution 1:12.5K [5]: 2.38
- ELISA reading at antibody dilution 1:6.25K [6]: 2.59
- ELISA reading at antibody dilution 1:3.125K [7]: 2.85

B2: Anti-HMMW antibody-7 (antibody, V domains shown)
VH: EVKLEESGGGLVQPGGSKKLSCFASGFTFSNYWMNWVRQSPEKGLEWVAEIQLKSNNYATHYAESVKGRFTISRDDSKSSVYLQMNNLRAEDTGIYYCTTEIFDFWGQGTTLTVSS
VL: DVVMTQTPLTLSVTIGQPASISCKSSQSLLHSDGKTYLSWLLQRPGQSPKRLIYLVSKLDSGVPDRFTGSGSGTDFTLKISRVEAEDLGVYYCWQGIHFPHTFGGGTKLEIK
notes: Mouse monoclonal antibody from a BALB/c x SP2/0 hybridoma; also called anti-HMMW-7 antibody
- titer [1]: ≥ 100000 dilution (1:x)
- ELISA reading at antibody dilution 1:25K [2]: 2.15
- ELISA reading at antibody dilution 1:50K [3]: 2.14
- ELISA reading at antibody dilution 1:100K [4]: 1.7
- ELISA reading at antibody dilution 1:12.5K [5]: 2.27
- ELISA reading at antibody dilution 1:6.25K [6]: 2.26
- ELISA reading at antibody dilution 1:3.125K [7]: 2.4

B3: Anti-HMMW antibody-8 (antibody, V domains shown)
VH: EVKLEESGGGLVQPGGSMKVSCVASGFTFSNYWMNWVRQSPEKGLEWVAEIKLKSDIDATNYAESVKGRFTISRDDSKSSVSLQMNNLRAEDTGIYYCSTEIFDYWGQGTTLTVSS
VL: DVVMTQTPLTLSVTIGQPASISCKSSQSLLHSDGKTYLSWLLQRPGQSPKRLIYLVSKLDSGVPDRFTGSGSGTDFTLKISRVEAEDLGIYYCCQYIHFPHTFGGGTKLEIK
notes: Mouse monoclonal antibody from a BALB/c x SP2/0 hybridoma; also called anti-HMMW-8 antibody
- titer [1]: ≥ 100000 dilution (1:x)
- ELISA reading at antibody dilution 1:25K [2]: 2.97
- ELISA reading at antibody dilution 1:50K [3]: 2.96
- ELISA reading at antibody dilution 1:100K [4]: 2.79
- ELISA reading at antibody dilution 1:12.5K [5]: 3.11
- ELISA reading at antibody dilution 1:6.25K [6]: 3.16
- ELISA reading at antibody dilution 1:3.125K [7]: 3.45

B4: Anti-HMMW antibody-5 (antibody, V domains shown)
VH: EVKLEESGGGLVQPGGSMKLSCVVSGFTFSNYWMNWVRQSPERGLEWVAEIKLKSNNYATLYAASVKGRFTISRDDSKSSVYLQVNNLRTEDTGIYYCITEIFDYWGQGTTLTVSS
VL: QTVVTQESALTTSPGETVTLTCRSSTGSVTTSNYATWVQEKPDHLFTGLIVGANNRAPGVPARFSGSLIGDKAALTITGAQTEDEAIYFCALWFIDHWVFGGGTKLTVL
notes: Mouse monoclonal antibody from a BALB/c x SP2/0 hybridoma; also called anti-HMMW-5 antibody
- titer [1]: ≥ 100000 dilution (1:x)
- ELISA reading at antibody dilution 1:25K [2]: 2.48
- ELISA reading at antibody dilution 1:50K [3]: 2.31
- ELISA reading at antibody dilution 1:100K [4]: 2
- ELISA reading at antibody dilution 1:12.5K [5]: 2.56
- ELISA reading at antibody dilution 1:6.25K [6]: 2.81
- ELISA reading at antibody dilution 1:3.125K [7]: 2.92

B5: Anti-HMMW antibody-3 (antibody, V domains shown)
VH: EVKLEESGGGLVQPGGSMKLSCVASGFTFSDYWMNWVRQSPEKGLEWLTEIRLKSDNYATHYAESVKGKFTISRDDSKSTVYLQMNNLRAEDTGIYYCSVETMDFWGQGTSVTVSS
VL: QAVVTQESALTTSPGETVTLTCRSSIGAVTTNNYANWVQEKPDRLFTGLIRGTNNRVPGVPARFSGSLIGDKAALTITGAQTEDEAIYFCALWYSNHWVFGGGTKLTVL
notes: Mouse monoclonal antibody from a BALB/c x SP2/0 hybridoma; also called anti-HMMW-3 antibody
- titer [1]: ≥ 100000 dilution (1:x)
- ELISA reading at antibody dilution 1:25K [2]: 3.04
- ELISA reading at antibody dilution 1:50K [3]: 2.92
- ELISA reading at antibody dilution 1:100K [4]: 2.54
- ELISA reading at antibody dilution 1:12.5K [5]: 3.22
- ELISA reading at antibody dilution 1:6.25K [6]: 3.4
- ELISA reading at antibody dilution 1:3.125K [7]: 3.57

B6: Anti-HMMW antibody-4 (antibody, V domains shown)
VH: EVKLEESGGGLVQPGGSMKLSCVASGFTFSDYWMNWVRQSPEKGLEWLTEIRLKSNNYLTHYAESVKGRFTISRDDSKSSVYLQMNNLRAEDTGIYYCSVETMDYWGQGISVTVSS
VL: QAVVTQESALTTSSGETVTLTCRSSTGAVTTSNYANWVQEKPDHLFTGLIRGTNNRAPGVPARFSGSLIGDKAALTITGAQTEDEAIYFCALWYSNHWVFGGGTKLTVL
notes: Mouse monoclonal antibody from a BALB/c x SP2/0 hybridoma; also called anti-HMMW-4 antibody
- titer [1]: ≥ 100000 dilution (1:x)
- ELISA reading at antibody dilution 1:25K [2]: 3.13
- ELISA reading at antibody dilution 1:50K [3]: 2.81
- ELISA reading at antibody dilution 1:100K [4]: 2.57
- ELISA reading at antibody dilution 1:12.5K [5]: 3.35
- ELISA reading at antibody dilution 1:6.25K [6]: 3.45
- ELISA reading at antibody dilution 1:3.125K [7]: 3.52

B7: Anti-HMMW antibody-2 (antibody, V domains shown)
VH: EVKLEESGGGLVQPGGSMKVSCVGSGFTFSNYWMNWVRQSPEKGLEWVAEIRLKSNNYATHYAESVKGRFTISRDDSKRSVYLQMNNLRVEDTGIYYCTTEAVDYWGQGTSVTVSS
VL: DIVMTQAAFSNPVTLGTSASISCRSSKSLLHSNGITYLYWYLQKPGQSPQLLIYQMSNLASGVPDRFSSSGSGTDFTLRISRVEAEDVGVYYCAQNLELPTFGGGTKLEIKR
notes: Mouse monoclonal antibody from a BALB/c x SP2/0 hybridoma; also called anti-HMMW-2 antibody
- titer [1]: ≥ 100000 dilution (1:x)
- ELISA reading at antibody dilution 1:25K [2]: 3.19
- ELISA reading at antibody dilution 1:50K [3]: 2.94
- ELISA reading at antibody dilution 1:100K [4]: 2.73
- ELISA reading at antibody dilution 1:12.5K [5]: 3.23
- ELISA reading at antibody dilution 1:6.25K [6]: 3.35
- ELISA reading at antibody dilution 1:3.125K [7]: 3.33

B8: Anti-HMMW antibody-6 (antibody, V domains shown)
VH: EVKLEESGGGLVQPGGSMKLSCVASGFTFSNYWMNWVRQSPEKGLEWVAEIRLKSNNYATHYAESVTGRFTISRDDSKSSVYLQMNNLRAEDTGIYYCTLEAVDYWGQGTSVTVSS
VL: DIVMTQAAFSNPVTLGTSASISCRSSKSLLHSDGITYLYWFLQKPGQSPQLLIYQMSNLASGVPDRFSSSGSGTDFTLRISRVEAEDVGVYYCAQNLELPTFGGGTKLEIK
notes: Mouse monoclonal antibody from a BALB/c x SP2/0 hybridoma; also called anti-HMMW-6 antibody
- titer [1]: ≥ 100000 dilution (1:x)
- ELISA reading at antibody dilution 1:25K [2]: 2.55
- ELISA reading at antibody dilution 1:50K [3]: 2.2
- ELISA reading at antibody dilution 1:100K [4]: 2.16
- ELISA reading at antibody dilution 1:12.5K [5]: 2.96
- ELISA reading at antibody dilution 1:6.25K [6]: 3.19
- ELISA reading at antibody dilution 1:3.125K [7]: 3.37
